The record followed here is patent publication US20220267452A1 (Chugai, published 2022).

In this experiment the target is T1, wild-type human FGFR3 (hFGFR3 protein, SEQ ID NO: 1) (human, UniProt P22607 23-804).
T1 construct: Full-length cDNA expressed in CHO DXB11s cells; The construct used in PC10/FGFR3 WT cells is not described; also called FGFR3 WT; wild-type hFGFR3
The experiment can be described thus: flow cytometry on hFGFR3/CHO DXB11s cells. On the procedure: The binding activity of monospecific antibodies FGA0005 and FGA0007 and bispecific antibodies FGA0005/CD3-TRAB and FGA0007/CD3-TRAB against wild-type hFGFR3 or hFGFR3 S249C mutant on the cell surface of hFGFR3/CHO DXB11s cells and hFGFR3 S249C/CHO DXB11s cells prepared by the method described in Example 1 and parent strain CHO DXB11s cells was measured using flow cytometry.
After 9×10⁶ cells of each cell line were washed with FACS/PBS supplemented with 0.5% BSA, 450 μL of Fixable Viability Dye 780 (eBioscience) diluted 5000 times was added to each of the cells. 25 μL each of the prepared cell suspensions was dispensed into v-bottom 96 well plates (Greiner Bio-one). Monospecific antibodies FGA0005 and FGA0007 with twice the final concentration of 0.01, 0.1, 1 μg/mL were prepared. In addition, bispecific antibodies FGA0005/CD3-TRAB and FGA0007/CD3-TRAB with twice the final concentration of 5, 10, and 20 μg/mL were prepared. 25 μL solutions containing the monospecific antibodies FGA0005 bivalent Ab and FGA0007 bivalent Ab, and the bispecific antibodies FGA0005/CD3-TRAB and FGA0007/CD3-TRAB prepared at a double concentration were added to the v-bottom 96 well plates, and allowed to stand at 4° C. for 30 minutes. After the cells were washed with FACS/PBS, Goat anti-Human IgG Fc Cross-Adsorbed Secondary Antibody, Dylight 650 Conjugate (Invitrogen) diluted 100-fold with FACS/PBS was added at 50 μL each and left to stand at 4° C. for 30 minutes. Cells were washed with FACS/PBS and then analyzed by flow cytometry.
For orientation: A flow cytometer gives signals particle by particle.

T1 sequence (P22607 other isoform, or with tags, fused parts or gaps): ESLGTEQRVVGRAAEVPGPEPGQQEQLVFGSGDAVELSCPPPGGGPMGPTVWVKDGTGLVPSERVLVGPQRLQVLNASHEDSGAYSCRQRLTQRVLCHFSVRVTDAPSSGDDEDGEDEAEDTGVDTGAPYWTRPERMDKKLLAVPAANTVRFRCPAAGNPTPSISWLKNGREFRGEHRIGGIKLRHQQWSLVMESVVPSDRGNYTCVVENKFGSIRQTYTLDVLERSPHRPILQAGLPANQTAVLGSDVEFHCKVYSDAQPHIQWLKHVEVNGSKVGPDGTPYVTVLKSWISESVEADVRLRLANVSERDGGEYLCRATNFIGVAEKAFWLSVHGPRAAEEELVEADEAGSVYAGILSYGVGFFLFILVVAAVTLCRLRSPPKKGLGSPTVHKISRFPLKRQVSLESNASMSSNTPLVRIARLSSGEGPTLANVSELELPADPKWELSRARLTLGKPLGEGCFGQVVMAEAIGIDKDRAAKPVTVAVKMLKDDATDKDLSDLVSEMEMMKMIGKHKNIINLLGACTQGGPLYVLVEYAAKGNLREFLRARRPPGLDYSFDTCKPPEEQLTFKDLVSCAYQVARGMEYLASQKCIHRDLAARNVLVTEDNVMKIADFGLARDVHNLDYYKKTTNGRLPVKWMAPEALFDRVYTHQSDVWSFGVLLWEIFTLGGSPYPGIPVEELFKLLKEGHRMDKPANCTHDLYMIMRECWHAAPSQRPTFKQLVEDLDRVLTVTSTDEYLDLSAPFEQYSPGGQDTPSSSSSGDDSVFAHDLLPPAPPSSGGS

B1: FGA0005/CD3-TRAB (FGA0005VH-F760mnN17/FGA0005VL-k0MTC//TR01H113-F760mnP17/L0011-k0) (bispecific antibody, human IgG1, kappa, N297A)
heavy 1: QSLEESGGRLVTPGTPLTLTCTASGFSLSTYWICWVRQAPGEGLEWIGYISSSGNTYYASWAKGRFTISKTSSTTVDLKMTSLTTEDTATYFCGGHNSDYITGWALDPWGPGTLVTVSSASTKGPSVFPLAPSSKSTSGGTAALGCLVKDYFPEPVTVSWNSGALTSGVHTFPAVLQSSGLYSLSSVVTVPSSSLGTQTYICNVNHKPSNTKVDKKVEPKSCDKTHTCPPCPAPELRGGPKVFLFPPKPKDTLMISRTPEVTCVVVDVSHEDPEVKFNWYVDGVEVHNAKTKPREEQYASTYRVVSVLTVLHQDWLNGKEYKCKVSNKALPAPIEKTISKAKGQPREPQVYTLPPSREEMTKNQVSLTCLVKGFYPSDIAVEWESNGQPENNYKTTPPYLDSDGSFFLYSKLTVDKSRWQQGNVFSCSVMHEALHNHYTQESLSLSP
light 1: AAVLTQTASPMSAAVGGTVTINCQSSKSVYRDKWLSWFQQKPGQPPKLLIYGASNLASGVSSRFKGSGSGTQFTLTISDVQCDDAATYYCLGGYSDNSEDAFGGGTEVVVKRTVAAPSVFIFPPSDEQLKSGTASVVCLLNNFYPREAKVQWKVDNALQSGNSQESVTEQDSKDCTYSLSSTLTLSKADYEKHKVYACEVTHQGLSSPVTKSFNRGEC
heavy 2: QVQLVESGGGVVQPGGSLRLSCAASGFTFSNAWMHWVRQAPGKGLEWVAQIKDKSQNYATYVAESVKGRFTISRADSKNSIYLQMNSLKTEDTAVYYCRYVHYAAGYGVDIWGQGTTVTVSSASTKGPSVFPLAPSSKSTSGGTAALGCLVKDYFPEPVTVSWNSGALTSGVHTFPAVLQSSGLYSLSSVVTVPSSSLGTQTYICNVNHKPSNTKVDKKVEPKSCDKTHTCPPCPAPELRGGPKVFLFPPKPKDTLMISRTPEVTCVVVDVSHEDPEVKFNWYVDGVEVHNAKTKPREEQYASTYRVVSVLTVLHQDWLNGKEYKCKVSNKALPAPIEKTISKAKGQPREPQVYTLPPSRKEMTKNQVSLTCLVKGFYPSDIAVEWESNGQPENNYKTTPPYLDSDGSFFLYSKLTVDKSRWQQGNVFSCSVMHEALHNHYTQKSLSLSP
light 2: DIVMTQSPLSLPVTPGEPASISCRSSQPLVHSNRNTYLHWYQQKPGQAPRLLIYKVSNRFSGVPDRFSGSGSGTDFTLKISRVEAEDVGVYYCGQGTQVPYTFGQGTKLEIKRTVAAPSVFIFPPSDEQLKSGTASVVCLLNNFYPREAKVQWKVDNALQSGNSQESVTEQDSKDSTYSLSSTLTLSKADYEKHKVYACEVTHQGLSSPVTKSFNRGEC
notes: Made by Fab-arm exchange (2-MEA) of the bivalent FGA0005 antibody and the anti-CD3 antibody; also called bispecific antibody FGA0005/CD3-TRAB
With B1, the binding result is “no binding (tested: 5, 10, and 20 µg/mL)”.

B2: FGA0007/CD3-TRAB (FGA0007VH-F760mnN17/FGA0007VL-k0MTC//TR01H113-F760mnP17/L0011-k0) (bispecific antibody, human IgG1, kappa, N297A)
heavy 1: QSVEESGGRLVTPGTPLTLTCTVSGFSLSSYPMSWVRQAPGKGLEWIGIISSSGRTYYASWAKGRFTISKASSTTAALKMTSLTTEDTATYFCARGGVYKYDDYGDYVLNLWGRGTLVTVSSASTKGPSVFPLAPSSKSTSGGTAALGCLVKDYFPEPVTVSWNSGALTSGVHTFPAVLQSSGLYSLSSVVTVPSSSLGTQTYICNVNHKPSNTKVDKKVEPKSCDKTHTCPPCPAPELRGGPKVFLFPPKPKDTLMISRTPEVTCVVVDVSHEDPEVKFNWYVDGVEVHNAKTKPREEQYASTYRVVSVLTVLHQDWLNGKEYKCKVSNKALPAPIEKTISKAKGQPREPQVYTLPPSREEMTKNQVSLTCLVKGFYPSDIAVEWESNGQPENNYKTTPPYLDSDGSFFLYSKLTVDKSRWQQGNVFSCSVMHEALHNHYTQESLSLSP
light 1: AIEMTQTPFSVSAAVGGTVTINCQASENIYSNLAWYQQKPGQPPKLLIYAASYLASGVPSRFKGSGSGTDYTLTISGVQCADAATYYCQCTLYSSTYGVAFGGGTEVVVKRTVAAPSVFIFPPSDEQLKSGTASVVCLLNNFYPREAKVQWKVDNALQSGNSQESVTEQDSKDCTYSLSSTLTLSKADYEKHKVYACEVTHQGLSSPVTKSFNRGEC
heavy 2: QVQLVESGGGVVQPGGSLRLSCAASGFTFSNAWMHWVRQAPGKGLEWVAQIKDKSQNYATYVAESVKGRFTISRADSKNSIYLQMNSLKTEDTAVYYCRYVHYAAGYGVDIWGQGTTVTVSSASTKGPSVFPLAPSSKSTSGGTAALGCLVKDYFPEPVTVSWNSGALTSGVHTFPAVLQSSGLYSLSSVVTVPSSSLGTQTYICNVNHKPSNTKVDKKVEPKSCDKTHTCPPCPAPELRGGPKVFLFPPKPKDTLMISRTPEVTCVVVDVSHEDPEVKFNWYVDGVEVHNAKTKPREEQYASTYRVVSVLTVLHQDWLNGKEYKCKVSNKALPAPIEKTISKAKGQPREPQVYTLPPSRKEMTKNQVSLTCLVKGFYPSDIAVEWESNGQPENNYKTTPPYLDSDGSFFLYSKLTVDKSRWQQGNVFSCSVMHEALHNHYTQKSLSLSP
light 2: DIVMTQSPLSLPVTPGEPASISCRSSQPLVHSNRNTYLHWYQQKPGQAPRLLIYKVSNRFSGVPDRFSGSGSGTDFTLKISRVEAEDVGVYYCGQGTQVPYTFGQGTKLEIKRTVAAPSVFIFPPSDEQLKSGTASVVCLLNNFYPREAKVQWKVDNALQSGNSQESVTEQDSKDSTYSLSSTLTLSKADYEKHKVYACEVTHQGLSSPVTKSFNRGEC
notes: Made by Fab-arm exchange (2-MEA); also called bispecific antibody FGA0007/CD3-TRAB
For B2, the binding result is “no binding (tested: 5, 10, and 20 µg/mL)”.

B3: FGA0007 bivalent Ab (FGA0007VH-F760mnN17/FGA0007VL-k0MTC) (antibody, human IgG1, kappa, N297A, V domains shown)
VH: QSVEESGGRLVTPGTPLTLTCTVSGFSLSSYPMSWVRQAPGKGLEWIGIISSSGRTYYASWAKGRFTISKASSTTAALKMTSLTTEDTATYFCARGGVYKYDDYGDYVLNLWGRGTLVTVSS
VL: AIEMTQTPFSVSAAVGGTVTINCQASENIYSNLAWYQQKPGQPPKLLIYAASYLASGVPSRFKGSGSGTDYTLTISGVQCADAATYYCQCTLYSSTYGVAFGGGTEVVVKR
notes: Rabbit-human chimeric bivalent (monospecific) antibody, expressed in Expi293 cells; also called monospecific antibody FGA0007
Regarding B3, the binding result is “no binding (tested: 0.01, 0.1, 1 µg/mL)”.

B4: FGA0005 bivalent Ab (FGA0005VH-F760mnN17/FGA0005VL-k0MTC) (antibody, human IgG1, kappa, N297A, V domains shown)
VH: QSLEESGGRLVTPGTPLTLTCTASGFSLSTYWICWVRQAPGEGLEWIGYISSSGNTYYASWAKGRFTISKTSSTTVDLKMTSLTTEDTATYFCGGHNSDYITGWALDPWGPGTLVTVSS
VL: AAVLTQTASPMSAAVGGTVTINCQSSKSVYRDKWLSWFQQKPGQPPKLLIYGASNLASGVSSRFKGSGSGTQFTLTISDVQCDDAATYYCLGGYSDNSEDAFGGGTEVVVKR
notes: Rabbit-human chimeric bivalent (monospecific) antibody, expressed in Expi293 cells; also called monospecific antibody FGA0005
B4: the binding result was “no binding (tested: 0.01, 0.1, 1 µg/mL)”.
